IntAct's records for PubMed 19135888

B1: Cell division control protein 13 (Saccharomyces cerevisiae), P32797 (parent)
chain: MDTLEEPECPPHKNRIFVSSSKDFEGYPSKAIVPVQFVALLTSIHLTETKCLLGFSNFERRGDQSQEDQYLIKLKFKDRGSERLARITISLLCQYFDIELPDLDSDSGASPTVILRDIHLERLCFSSCKALYVSKHGNYTLFLEDIKPLDLVSVISTISTKSTNSSKHSSSELISECDLNNSLVDIFNNLIEMNRDEKNRFKFVKLIHYDIELKKFVQDQQKVLSQKSKAAAINPFFVPNRLGIPYIESQNEFNSQLMTLNVDEPTTDISNMGEEMHDSADPIEDSDSSTTSSTGKYFSSKSYIQSQTPERKTSVPNNWHDDDSGSKRKRKLSFHSPNASSIRKAISYEQLSLASVGSVERLEGKIVGMNPPQFASINEFKYCTLKLYFTQLLPNVPDKVLVPGVNCIEIVIPTRERICELFGVLNCQSDKISDILLLEKPDRISVEVERILWDNDKTASPGMAVWSLKNISTDTQAQAQVQVPAQSSASIDPSRTRMSKMARKDPTIEFCQLGLDTFETKYITMFGMLVSCSFDKPAFISFVFSDFTKNDIVQNYLYDRYLIDYENKLELNEGFKAIMYKNQFETFDSKLRKIFNNGLRDLQNGRDENLSQYGIVCKMNIKVKMYNGKLNAIVRECEPVPHSQISSIASPSQCEHLRLFYQRAFKRIGESAISRYFEEYRRFFPIHRNGSHLAKLRFDEVKHEPKKSPTTPALAEHIPDLNADVSSFDVKFTDISSLLDSSARLPRPQQTHKSNTLYSCEGRIIAIEYHASDLCFHITNELPLLQTRGLAPERVLQLHIITSKNFAYFFNRSSAYLQRQPLEEKYTQLAQFLGHSFKFNITSSLTLFPDTTVALQIWCPIECTFRELQQQLAHPKVAAAPDSGSLDCAINATVNPLRLLAAQNGVTVKKEEDNDDDAGAVPTS

Variants of: B1
Conditions: with cdk1_yeast CDC28, P00546
cdk1_yeast CDC28, P00546, sequence (P00546 whole entry, looked up): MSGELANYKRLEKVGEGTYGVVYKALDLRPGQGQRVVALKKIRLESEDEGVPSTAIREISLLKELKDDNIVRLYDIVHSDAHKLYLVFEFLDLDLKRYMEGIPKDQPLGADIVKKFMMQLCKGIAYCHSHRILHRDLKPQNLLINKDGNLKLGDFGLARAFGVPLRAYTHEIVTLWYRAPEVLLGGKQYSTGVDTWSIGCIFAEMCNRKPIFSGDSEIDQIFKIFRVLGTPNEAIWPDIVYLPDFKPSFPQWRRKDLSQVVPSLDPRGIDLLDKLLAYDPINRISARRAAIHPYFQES
For T308A, the “effect of a mutation on the interaction” value was “decreasing interaction”.
In the case of T308A;S336A, the “effect of a mutation on the interaction” value is reported as “disrupting interaction”.
